Source: US20240034796A1 (GENUV, published 2024)
Where a chain is given by its changes, count along the chain named.

T1: extracellular domain (ECD) PD-1 protein from mouse (mouse, UniProt Q02242 25-169)
T1 construct: extracellular domain; also called mouse PD-1 antigen
T1 sequence (looked up): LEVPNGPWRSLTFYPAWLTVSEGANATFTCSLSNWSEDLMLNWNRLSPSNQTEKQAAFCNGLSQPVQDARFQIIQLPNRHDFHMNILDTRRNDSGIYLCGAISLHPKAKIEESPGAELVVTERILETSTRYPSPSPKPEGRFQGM

B1: humanized antibody 1G1-h68 (antibody, human IgG4, kappa, V domains shown)
VH: QVQLVQSGAEVKKPGASVKVSCKASGYTFTGYWMHWVRQAPGQGLEWIGMIHPNSDTTTYNEKFKNRVTMTRDTSISTAYMELSRLRSDDTAVYYCTGTDQAAWFAFWGQGTTVTVSS
VL: DIVMTQTPLSLSVTPGQPASISCRSSQNIVHSNGDTYLEWYLQKPGQSPQLLIYKVSKRFSGVPDRFSGSGSGTDFTLKISRVEAEDVGVYYCFQGSHVPWTFGGGTKVEIKR
notes: hIgG4 heavy chain, human kappa light chain
B2: humanized antibody 1G1-h61 (antibody, human IgG4, kappa, V domains shown)
VH: B1 VH with I48M, T97A
VL: B1 VL with Q50K
notes: as for B1
B3: humanized antibody 1G1-h70 (antibody, V domains shown)
VH: B1 VH with T97A
VL: B1 VL with N33Q
notes: hIgG4 heavy chain, human kappa light chain; also called 1G1-h70 parent antibody (WT); U299-WTI
B4: 2E5 antibody (antibody, V domains shown)
VH: QVQLVQSGAEVKKPGSSVKVSCKASGFTFTTYYISWVRQAPGQGLEYLGYINMGSGGTNYNEKFKGRVTITADKSTSTAYMELSSLRSEDTAVYYCAIIGYFDYWGQGTMVTVSS
VL: DVVMTQSPLSLPVTLGQPASISCRSSQSLLDSDGGTYLYWFQQRPGQSPRRLIYLVSTLGSGVPDRFSGSGSGTDFTLKISRVEAEDVGVYYCMQLTHWPYTFGQGTKLEIK
B5: AHF16556 (antibody, V domains shown)
VH: B1 VH with T59V, E62W, T97A, A102E, F105A
VL: DIVMTQTPLSLSVTPGQPASISCRSSQNIVRSQGDTYLEWYLQKPGQSPQLLIYKVSKRFSGVPDRFSGSGSGTDFTLKISRVEAEDVGVYYCFQGSHVPWTFGGGTKVEIK
B6: AHF16557 (antibody, V domains shown)
VH: B1 VH with T59V, E62W, T97A, F105A, A106G
VL: B5 VL with R31H
B7: AHF16558 (antibody, V domains shown)
VH: B1 VH with T97A, A102E, F105H
VL: B5 VL
B8: AHF16559 (antibody, V domains shown)
VH: B1 VH with T59V, T97A, F105H
VL: B5 VL with R31H
B9: AHF16560 (antibody, V domains shown)
VH: B1 VH with T59I, T97A, A102E, F105H, A106G
VL: B5 VL
B10: AHF16561 (antibody, V domains shown)
VH: B1 VH with T59I, T97A, F105A, A106G
VL: B5 VL
B11: AHF16563 (antibody, V domains shown)
VH: B1 VH with T59V, E62W, T97A, A102E, F105M, A106G
VL: B5 VL with R31H
B12: AHF16564 (antibody, V domains shown)
VH: B1 VH with T97A, A102E, F105A, A106G
VL: B5 VL
B13: AHF16565 (antibody, V domains shown)
VH: B1 VH with T59V, E62W, T97A, A102E, F105H, A106G
VL: B5 VL
B14: AHF16566 (antibody, V domains shown)
VH: B1 VH with T59V, E62W, T97A, F105A
VL: B5 VL with R31H
B15: AHF16568 (antibody, V domains shown)
VH: B1 VH with T59I, E62W, T97A, A102E, F105M, A106G
VL: B5 VL
B16: AHF16569 (antibody, V domains shown)
VH: B1 VH with T59I, E62W, T97A, A102E, F105A
VL: B5 VL
B17: AHF16570 (antibody, V domains shown)
VH: B1 VH with T59I, E62W, T97A, F105A, A106G
VL: B5 VL

How the values were obtained:
human PD-1 protein [1] = molecular target: T2, human PD-1 protein (human, UniProt Q15116 25-167, limits assumed); experiment: SPR, Biacore 8K, antibody captured by anti-human IgG on CM5, human PD-1 as analyte
T2 construct: also called human PD-1 antigen
T2 sequence (Q15116 25-167 limits assumed): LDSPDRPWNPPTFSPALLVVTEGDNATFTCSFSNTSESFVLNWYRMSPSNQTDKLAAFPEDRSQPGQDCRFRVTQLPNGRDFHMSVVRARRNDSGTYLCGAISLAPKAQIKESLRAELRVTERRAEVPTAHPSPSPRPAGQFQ
Procedure: Anti-human IgG antibody was immobilized on a CM5 chip (Cytiva) via amine coupling. […] Human PD-1 and running buffer at a concentration of 0-100 nM (0, 6.25, 12.5, 25, 50, 100 nM) were flowed onto the sensor chip at a flow rate of 30 μl/min for an association phase of 120 s, which was followed by a dissociation phase of 900 s. The chip was regenerated with glycine at pH 1.5 after each experiment. Association and dissociation curves were drawn using Cytiva evaluation software, and kinetics and affinity values were determined.

[2] = molecular target: T3, human PD-1 expressed on CHO-S cells (human, UniProt Q15116 25-288); experiment: cell-based ELISA on CHO-S cells expressing human PD-1
T3 construct: CHO-S cells transfected with pCMV3-C-FLAG vector (Sino) holding human PD-1 cDNA; also called cell surface human PD-1; hPD-1
T3 sequence (Q15116 25-288 limits assumed): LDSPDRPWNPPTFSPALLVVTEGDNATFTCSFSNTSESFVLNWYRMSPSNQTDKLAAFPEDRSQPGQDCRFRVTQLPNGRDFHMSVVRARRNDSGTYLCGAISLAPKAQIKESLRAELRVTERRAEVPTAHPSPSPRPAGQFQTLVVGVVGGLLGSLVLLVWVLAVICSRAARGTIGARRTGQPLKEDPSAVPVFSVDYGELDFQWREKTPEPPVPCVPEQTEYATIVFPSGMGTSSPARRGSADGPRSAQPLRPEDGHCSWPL
Procedure: To summarize the ELISA analysis, 10,000 CHO-S cells expressing either human PD-1 or mouse PD-1 were coated in a collagen-coated 96-well plate (Thermo scientific) overnight in an incubator at 37° C. The coated cells were fixed with 8% paraformaldehyde at room temperature for 15 minutes.
After washing, a secondary antibody was added and incubated overnight at 4° C. […] After washing, TMB substrate (abcam) was added, and the color reaction was stopped with STOP solution (abcam). Absorbance at 450/650 nm was measured using a microplate reader (ThermoFisher).

human PD-1 protein [3] = molecular target: T2, human PD-1 protein; experiment: SPR, Biacore 8K, antibody captured on Protein A chip, human PD-1 as analyte
human PD-1 protein [4] = molecular target: T2, human PD-1 protein; experiment: SPR, Biacore 8K, antibody captured on Protein A chip, human PD-1 as analyte, pH 7.4
[5] = molecular target: T3, human PD-1 expressed on CHO-S cells; experiment: cell-based ELISA on fixed CHO-S cells expressing human PD-1
[6] = molecular target: T4, extracellular domain (ECD) PD-1 protein from human (human, UniProt Q15116 25-170); experiment: protein-based ELISA, coated PD-1 ECD, antibody at 1 ug/ml
T4 construct: the whole entry is named; also called human PD-1 antigen
T4 sequence (Q15116 25-170 limits assumed): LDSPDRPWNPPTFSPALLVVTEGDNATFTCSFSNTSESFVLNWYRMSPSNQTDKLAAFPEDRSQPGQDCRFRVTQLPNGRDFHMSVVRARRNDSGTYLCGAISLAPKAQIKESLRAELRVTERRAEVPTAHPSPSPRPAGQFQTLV
Procedure: (§1) To determine the cross-reactivity of the antibody to PD-1 antigens, protein-based ELISA was performed. To summarize the ELISA analysis, a 96-well plate (Thermo scientific) was coated with 10 ng of the extracellular domain (ECD) PD-1 proteins from human, mouse, rabbit, cynomolgus, and rat overnight at 4° C. […] After washing, a secondary antibody (anti-human IgG antibody) was added and incubated at 37° C. for 2 hours. After washing, TMB substrate (abcam) was added, and the color reaction was stopped with STOP solution (abcam). Absorbance at 450/650 nm was measured using a microplate reader (ThermoFisher).

[7] = molecular target: T1, extracellular domain (ECD) PD-1 protein …; experiment: as above
Procedure: as §1

human PD-1 protein [8] = molecular target: T2, human PD-1 protein; experiment: SPR (Biacore 8K), ratio between the values at pH 7.4 and pH 6.0, human PD-1 as analyte
Procedure: (§2) The binding kinetics of each antibody to human PD-1 were measured through SPR (Surface Plasma Resonance) analysis using Biacore 8K (Cytiva), and the antibodies' binding affinities to the antigen were compared to one another.
(§3) Seven concentrations ([…]) of human PD-1 were flowed onto the sensor chip at a flow rate of 30 μL/min for an association phase of 120 s, followed by dissociation for 1800 s. Capture, association, and dissociation were performed in HBS-EP+buffer at pH 6.0. The chip was regenerated with glycine at pH 1.5 after each experiment. Association and dissociation curves were drawn using Cytiva evaluation software, and kinetics and affinity values were determined.

human PD-1 protein [9] = molecular target: T2, human PD-1 protein; experiment: SPR, binding kinetics to human PD-1; parent run 1
human PD-1 protein [10] = molecular target: T2, human PD-1 protein; experiment: SPR, Biacore 8K, antibody captured on Protein A chip, human PD-1 as analyte, HBS-EP+ at pH 6.0
Procedure: as §2, §3

human PD-1 protein [11] = molecular target: T2, human PD-1 protein; experiment: SPR, binding kinetics to human PD-1; parent run 2
human PD-1 protein [12] = molecular target: T2, human PD-1 protein; experiment: SPR; ratio against the U299-WT parent
human PD-1 protein [13] = molecular target: T2, human PD-1 protein; experiment: SPR, binding kinetics to human PD-1

| Molecule | Ratio (kD) (human PD-1 protein [12]) | Ratio (kd) (human PD-1 protein [12]) | Kd (human PD-1 protein [13]) | koff (human PD-1 protein [13]) | kon (human PD-1 protein [13]) | also measured |
| --- | --- | --- | --- | --- | --- | --- |
| Keytruda (antibody) | – | – | – | – | – | Kd (human PD-1 protein [1]): 6.33 nM; EC50 [2]: 0.154 nM; Kd (human PD-1 protein [3]): 7.06 nM; Kd (human PD-1 protein [4]): 6.6 nM; EC50 (read off the curve) [5]: 0.05 µg/mL |
| B1 | – | – | – | – | – | binding result [6]: binds; binding result [7]: binds |
| B2 | – | – | – | – | – | binding result [6]: binds; binding result [7]: binds |
| B3 | – | – | – | – | – | Ratio(PH 7.4 vs PH6) KD (human PD-1 protein [8]): 5.8; Ratio(PH 7.4 vs PH6) ka (human PD-1 protein [8]): 2.3; Ratio(PH 7.4 vs PH6) kd (human PD-1 protein [8]): 2.7; Kd (human PD-1 protein [9]): 2.32 nM; koff (human PD-1 protein [9]): 0.000402 s⁻¹; kon (human PD-1 protein [9]): 174000 M⁻¹ s⁻¹; Kd (human PD-1 protein [4]): 5.4 nM; binding result [7]: binds; Kd (human PD-1 protein [10]): 0.9 nM; Kd (human PD-1 protein [11]): 2.17 nM; koff (human PD-1 protein [11]): 0.000412 s⁻¹; kon (human PD-1 protein [11]): 190000 M⁻¹ s⁻¹ |
| B4 | – | – | – | – | – | Ratio(PH 7.4 vs PH6) KD (human PD-1 protein [8]): 2.8; Ratio(PH 7.4 vs PH6) ka (human PD-1 protein [8]): 3.4; Ratio(PH 7.4 vs PH6) kd (human PD-1 protein [8]): 0.8; Kd (human PD-1 protein [4]): 12.6 nM; Kd (human PD-1 protein [10]): 4.5 nM |
| B5 | 5.27 | 6.45 | 0.427 nM | 6.31e-05 s⁻¹ | 148000 M⁻¹ s⁻¹ | – |
| B6 | 5.29 | 4.69 | 0.425 nM | 8.68e-05 s⁻¹ | 204000 M⁻¹ s⁻¹ | – |
| B7 | 7.26 | 5.29 | 0.31 nM | 7.69e-05 s⁻¹ | 248000 M⁻¹ s⁻¹ | – |
| B8 | 6.06 | 5.34 | 0.371 nM | 7.62e-05 s⁻¹ | 206000 M⁻¹ s⁻¹ | – |
| B9 | 6.8 | 6.04 | 0.331 nM | 6.74e-05 s⁻¹ | 204000 M⁻¹ s⁻¹ | – |
| B10 | 7.45 | 7.36 | 0.302 nM | 5.53e-05 s⁻¹ | 183000 M⁻¹ s⁻¹ | – |
| B11 | 13.6 | 11.3 | 0.165 nM | 3.6e-05 s⁻¹ | 218000 M⁻¹ s⁻¹ | – |
| B12 | 14.1 | 11.1 | 0.16 nM | 3.68e-05 s⁻¹ | 230000 M⁻¹ s⁻¹ | – |
| B13 | 2.46 | 3.45 | 0.913 nM | 0.000118 s⁻¹ | 130000 M⁻¹ s⁻¹ | – |
| B14 | 6.45 | 5.41 | 0.349 nM | 7.53e-05 s⁻¹ | 215000 M⁻¹ s⁻¹ | – |
| B15 | 9.34 | 11.6 | 0.241 nM | 3.52e-05 s⁻¹ | 146000 M⁻¹ s⁻¹ | – |
| B16 | 6.64 | 6.04 | 0.339 nM | 6.74e-05 s⁻¹ | 199000 M⁻¹ s⁻¹ | – |
| B17 | 11.2 | 12.4 | 0.2 nM | 3.29e-05 s⁻¹ | 164000 M⁻¹ s⁻¹ | – |
